The record followed here is paper PMC10501182.

The assay concerns the target Protein A (ProA)-tagged INTAC (human) (UniProt Q8N201). Nature of the assay: pull-down; in vitro; ProA-tagged INTAC incubated with the indicated purified subcomplexes and immobilised onto IgG resin, washed, SDS-PAGE and Coomassie blue staining; some lanes with DSIF, NELF, a DNA-RNA scaffold or a PP2A inhibitor added.

Consider “human RNA polymerase II overexpressed in Expi293F cells (from UniProt P24928 1-1970; P30876 1-1174; P19387 1-275; P52435 1-117) (complex)”, for which the stoichiometry N – broadly, a count of units in the complex or per binding partner – amounted to 1.
